Data taken from the supplement of paper PMC7125110.
± gives the standard error. Fewer inactive variants are shown than the library holds.

B1: glmS ribozyme (parent)
chain: AUAAAAGCGCCAGAACUACAGAAAUGUAGUUGACGAGGAGGAGGUUUAUCGAAUUUUCGGCGGAUGCCUCCAAA

Columns and labels:
Settings in all cases: with glucosamine-6-phosphate
glucosamine-6-phosphate [1] = variants of: B1; assay: self-cleavage kobs at 40 uM GlcN6P; higher = faster cleavage; RNA array
Method in brief: (§1)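 Glucosamine-6-phosphate in HEPES/KCl/Mg(OAc)2 buffer, at 40 μM to 10 mM, was flowed over barcoded ribozyme variants transcribed in situ by E. coli RNA polymerase on sequenced MiSeq chips. Tracking was through a hybridised Cy3 probe at 37 °C. kobs, kcat and KM came from exponential decay fits and weighted Michaelis–Menten fits of normalised per-tile medians.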

glucosamine-6-phosphate [2] = variants of: B1; assay: self-cleavage kobs at 160 uM GlcN6P; higher = faster cleavage; RNA array
Method in brief: as §1

glucosamine-6-phosphate [3] = variants of: B1; assay: self-cleavage kobs at 640 uM GlcN6P; higher = faster cleavage; RNA array
Method in brief: as §1

glucosamine-6-phosphate [4] = variants of: B1; assay: self-cleavage kobs at 2500 uM GlcN6P; higher = faster cleavage; RNA array
Method in brief: as §1

glucosamine-6-phosphate [5] = variants of: B1; assay: self-cleavage kobs at 10000 uM GlcN6P; higher = faster cleavage; RNA array
Method in brief: as §1

Variant	self-cleavage kobs at 40 uM GlcN6P (glucosamine-6-phosphate [1]) [s⁻¹]	self-cleavage kobs at 160 uM GlcN6P (glucosamine-6-phosphate [2]) [s⁻¹]	self-cleavage kobs at 640 uM GlcN6P (glucosamine-6-phosphate [3]) [s⁻¹]	self-cleavage kobs at 2500 uM GlcN6P (glucosamine-6-phosphate [4]) [s⁻¹]	self-cleavage kobs at 10000 uM GlcN6P (glucosamine-6-phosphate [5]) [s⁻¹]
U55A U56C	0.00013 ± 2.5e-05	0.000191 ± 3e-05	0.000919 ± 0.00017	0.00258 ± 0.00063	0.00781 ± 0.0012
G44A C61G	< 1e-05	< 1e-05	–	< 1e-05	< 1e-05
C11A G41U	< 1e-05	< 1e-05	< 1e-05	< 1e-05	–
A14C G35U	< 1e-05	< 1e-05	–	< 1e-05	< 1e-05
G41A G59U	< 1e-05	–	< 1e-05	–	< 1e-05
G32A C34U C50U C61A G66A	4.94e-05 ± 2.4e-05	–	–	–	–
A12G A33G G37U	< 1e-05	–	–	–	< 1e-05
G60C U69G	< 1e-05	< 1e-05	–	–	< 1e-05
C8U U30G A36G C68U	< 1e-05	< 1e-05	–	–	–
G37U G40C G44U	< 1e-05	–	–	–	–
G13C G32C U57G C70G	7.16e-05 ± 2.4e-05	–	–	–	9.13e-05 ± 1.7e-05
G35U G60A	< 1e-05	< 1e-05	< 1e-05	< 1e-05	< 1e-05
A6G G60A G62C	< 1e-05	–	–	–	–
A6C G29U G32A U57A	< 1e-05	–	< 1e-05	–	< 1e-05
G51A U55G C68G	< 1e-05	–	–	–	< 1e-05
G35A U45A C71A	< 1e-05	–	–	–	–
C16G G43C	< 1e-05	–	< 1e-05	–	< 1e-05
G13C U45C	< 1e-05	< 1e-05	< 1e-05	< 1e-05	–
A36U C50G U69C	0.000561 ± 0.00011	–	–	–	0.000905 ± 0.00017
A14U G62C	< 1e-05	–	–	< 1e-05	–
C34U C50G	5.12e-05 ± 1.3e-05	0.000184 ± 3.2e-05	0.000831 ± 0.00035	5.23e-05 ± 2.2e-05	–
A6U A39C	< 1e-05	–	–	–	–
C8A C58G	< 1e-05	< 1e-05	< 1e-05	–	–
C11U U46A	< 1e-05	< 1e-05	–	4.03e-05 ± 1.7e-05	9.01e-05 ± 1.7e-05
